Target: TAZ, mouse, expressed from plasmid (HA-TAZ WT) (mouse, UniProt Q9EPK5 1-395)
Assay: co-IP

Chain of TAZ, mouse, expressed from plasmid (HA-TAZ WT) (Q9EPK5 whole entry): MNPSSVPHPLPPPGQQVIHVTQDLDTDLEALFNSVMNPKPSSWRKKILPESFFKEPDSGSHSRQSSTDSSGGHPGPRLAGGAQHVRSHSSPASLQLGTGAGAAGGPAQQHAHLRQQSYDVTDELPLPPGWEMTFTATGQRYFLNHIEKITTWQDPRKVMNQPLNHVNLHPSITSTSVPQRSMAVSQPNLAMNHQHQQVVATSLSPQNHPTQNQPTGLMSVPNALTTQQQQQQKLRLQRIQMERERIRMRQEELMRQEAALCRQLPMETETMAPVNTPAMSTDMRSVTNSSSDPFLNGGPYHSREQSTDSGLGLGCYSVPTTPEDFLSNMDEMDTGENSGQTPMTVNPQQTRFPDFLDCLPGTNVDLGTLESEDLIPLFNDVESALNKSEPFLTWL

B1: PPARγ S112D (phospho-mimic mutant of mouse PPARgamma 2) (natural protein, UniProt P37238-1 1-505, looked up)
chain: MGETLGDSPVDPEHGAFADALPMSTSQEITMVDTEMPFWPTNFGISSVDLSVMEDHSHSFDIKPFTTVDFSSISAPHYEDIPFTRADPMVADYKYDLKLQEYQSAIKVEPADPPYYSEKTQLYNRPHEEPSNSLMAIECRVCGDKASGFHYGVHACEGCKGFFRRTIRLKLIYDRCDLNCRIHKKSRNKCQYCRFQKCLAVGMSHNAIRFGRMPQAEKEKLLAEISSDIDQLNPESADLRALAKHLYDSYIKSFPLTKAKARAILTGKTTDKSPFVIYDMNSLMMGEDKIKFKHITPLQEQSKEVAIRIFQGCQFRSVEAVQEITEYAKNIPGFINLDLNDQVTLLKYGVHEIIYTMLASLMNKDGVLISEGQGFMTREFLKNLRKPFGDFMEPKFEFAVKFNALELDDSDLAIFIAVIILSGDRPGLLNVKPIEDIQDNLLQALELQLKLNHPESSQLFAKVLQKMTDLRQIVTEHVQLLHVIKKTETDMSLHPLLQEIYKDLY
  fold change of association against WT PPARγ: ~2 fold
